Measured values from US20200392227A1 (LYVGEN BIOPHARMA, published 2020).
Read-outs that look alike come from different tables or passages of the source. Each block holds one binder with its values, some of them ahead of it.

What was measured:
[1] = molecular target: T1, human FcγRIIA(R131) expressed on CHO cells (human, UniProt P12318 34-317); test: FACS, CHO cells expressing FcγRIIA(R131)
T1 construct: whole, on cells
T1 sequence (looked up): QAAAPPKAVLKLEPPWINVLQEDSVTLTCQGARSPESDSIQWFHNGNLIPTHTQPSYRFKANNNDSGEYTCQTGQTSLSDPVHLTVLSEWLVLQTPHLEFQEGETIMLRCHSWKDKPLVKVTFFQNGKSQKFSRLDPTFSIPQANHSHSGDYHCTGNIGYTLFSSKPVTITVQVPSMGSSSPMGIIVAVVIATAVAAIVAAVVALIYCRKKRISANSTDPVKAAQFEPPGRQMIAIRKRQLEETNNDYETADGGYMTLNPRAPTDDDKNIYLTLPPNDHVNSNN
Experimental: FIGS. 1A-1W are charts showing binding activity of various IgG variants as indicated to different types of Fcγ receptors expressed on CHO-K1 cells at the various concentrations as indicated. The concentrations of each IgG variant, from left to right, are 0 μg/ml, 0.3 μg/ml, 1 μg/ml, 3 μg/ml, and 10 μg/ml in FIGS. 1A-1C, 1E-J, 1L-1M, 1P-1R, and 1T-1V. For FIGS. 1D, 1K, 10, 1S, and 1w the bars, from left to right, correspond to the following concentrations of IgG variant: 0.3 μg/ml, 1 μg/ml, 3 μg/ml, and 10 μg/ml.
For FACS analysis of the IgG mutants' binding to different FcγRs, FcγR overexpressing CHO cells were harvested using trypsin-EDTA and were suspended in cold staining buffer (3% BSA in PBS). Test IgG mutants, which were diluted in staining buffer, were added into the cells. The mixture was incubated 4° C. for 2 hours, and then washed twice with cold staining buffer and re-suspended in PE-labeled anti-human IgG followed by incubation at 4° C. for 2 hours. The mixture was washed twice with staining buffer and re-suspended in 2% PFA in PBS for FACS.

[2] = molecular target: T2, human FcRn protein (MednaBio, E1032) (human, UniProt P55899 24-297; P61769 21-119); test: BLI
T2 construct: Bought; assays at pH 6
Summary of the method: (§1)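 On an Octet Red96 System, anti-penta-HIS biosensors loaded with commercial human Fc receptor proteins were dipped into test IgG diluted 1:3 over 8 points from 300 nM. Fcγ receptor runs used pH 7.2 and FcRn runs used pH 6. Global fitting of these biolayer interferometry data gave the values for Kd, kon and koff, using a 1:1 binding model.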

[3] = molecular target: T3, human FcRIIIB protein (MednaBio, E1037) (human, UniProt O75015 17-200); test: BLI
T3 construct: Bought; also called FcγRIIIB; FcgRIIIB
T3 sequence (O75015 17-200 limits assumed): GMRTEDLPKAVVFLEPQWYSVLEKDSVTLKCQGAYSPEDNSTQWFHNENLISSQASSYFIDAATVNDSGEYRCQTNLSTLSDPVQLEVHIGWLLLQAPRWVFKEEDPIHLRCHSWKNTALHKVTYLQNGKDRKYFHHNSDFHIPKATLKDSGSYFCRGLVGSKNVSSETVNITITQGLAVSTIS
Summary of the method: as §1

[4] = molecular target: T4, human FcRIIA protein (MednaBio, E1033) (human, UniProt P12318 34-218, limits assumed); test: BLI
T4 construct: Bought; also called FcγRIIA
T4 sequence (looked up): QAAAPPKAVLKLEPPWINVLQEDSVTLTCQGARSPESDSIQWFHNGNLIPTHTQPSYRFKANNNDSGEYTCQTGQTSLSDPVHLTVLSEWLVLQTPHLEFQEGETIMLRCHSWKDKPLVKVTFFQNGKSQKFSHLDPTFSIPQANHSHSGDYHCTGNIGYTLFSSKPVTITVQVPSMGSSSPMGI
Summary of the method: as §1

[5] = molecular target: T5, human FcRIIIA-V158 protein (MednaBio, E1035) (human, UniProt P08637 17-208); test: BLI
T5 construct: Bought; also called FcγRIIIA(V); FcgRIIIA(V)
T5 sequence (P08637 17-208 F176V): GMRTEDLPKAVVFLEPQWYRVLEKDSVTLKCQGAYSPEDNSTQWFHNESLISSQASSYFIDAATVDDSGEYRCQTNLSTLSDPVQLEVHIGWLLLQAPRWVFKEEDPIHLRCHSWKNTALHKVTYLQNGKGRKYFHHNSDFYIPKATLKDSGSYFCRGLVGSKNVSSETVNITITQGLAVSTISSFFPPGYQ
Summary of the method: as §1

[6] = molecular target: T6, human FcRIIB/C protein (MednaBio, E1034) (human, UniProt P31994 43-217, limits assumed); test: BLI
T6 construct: Bought as FcRIIB/C; also called FcγRIIB; CD32B
T6 sequence (looked up): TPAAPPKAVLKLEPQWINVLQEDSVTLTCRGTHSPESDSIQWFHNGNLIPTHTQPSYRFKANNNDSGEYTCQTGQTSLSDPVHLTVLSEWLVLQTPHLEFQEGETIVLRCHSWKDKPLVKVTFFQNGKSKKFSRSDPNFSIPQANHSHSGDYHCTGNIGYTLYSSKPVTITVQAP
Summary of the method: as §1

[7] = molecular target: T7, human FcRIIIA-F158 protein (MednaBio, E1036) (human, UniProt P08637 17-208); test: BLI
T7 construct: Bought; also called FcγRIIIA(F)
T7 sequence (P08637 17-208 limits assumed): as the sequence (P08637 17-208 F176V) above, with V160F counted along it
Summary of the method: as §1

[8] = molecular target: T8, human FcRI protein (MednaBio, E1031) (human, UniProt P12314 16-288, limits assumed); test: BLI
T8 construct: Bought; loaded on anti-penta-HIS biosensors; also called FcγRI
T8 sequence (P12314 16-288 limits assumed): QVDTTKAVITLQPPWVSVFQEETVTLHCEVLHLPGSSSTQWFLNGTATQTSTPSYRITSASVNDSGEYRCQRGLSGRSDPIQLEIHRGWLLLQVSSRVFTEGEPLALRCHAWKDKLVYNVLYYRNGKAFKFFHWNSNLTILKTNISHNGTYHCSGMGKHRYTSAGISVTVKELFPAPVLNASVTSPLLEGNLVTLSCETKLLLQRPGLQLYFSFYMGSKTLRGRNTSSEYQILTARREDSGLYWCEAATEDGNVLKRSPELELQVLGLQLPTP
Summary of the method: as §1

[9] = molecular target: T2, human FcRn protein (MednaBio, E1032); test: BLI; remark: listed apart in the source
Summary of the method: as §1

[10] = molecular target: T3, human FcRIIIB protein (MednaBio, E1037); test: BLI; remark: listed apart in the source
Summary of the method: as §1

[11] = molecular target: T4, human FcRIIA protein (MednaBio, E1033); test: BLI; remark: listed apart in the source
Summary of the method: as §1

[12] = molecular target: T5, human FcRIIIA-V158 protein (MednaBio, …); test: BLI; remark: listed apart in the source
Summary of the method: as §1

[13] = molecular target: T6, human FcRIIB/C protein (MednaBio, E1034); test: BLI; remark: listed apart in the source
Summary of the method: as §1

[14] = molecular target: T7, human FcRIIIA-F158 protein (MednaBio, …); test: BLI; remark: listed apart in the source
Summary of the method: as §1

[15] = molecular target: T8, human FcRI protein (MednaBio, E1031); test: BLI; remark: listed apart in the source
Summary of the method: as §1

- binding result [1]: no binding (tested: 10 ug/ml)
- Kd [2]: 18.8 nM
- koff [2]: 0.015 s⁻¹
- kon [2]: 803000 M⁻¹ s⁻¹
- Kd [3]: 556 nM
- koff [3]: 0.144 s⁻¹
- kon [3]: 258000 M⁻¹ s⁻¹
- Kd [4]: 800 nM
- koff [4]: 0.247 s⁻¹
- kon [4]: 310000 M⁻¹ s⁻¹
- Kd [5]: 456 nM
- koff [5]: 0.042 s⁻¹
- kon [5]: 92300 M⁻¹ s⁻¹
- Kd [6]: 656 nM
- koff [6]: 0.156 s⁻¹
- kon [6]: 238000 M⁻¹ s⁻¹
- Kd [7]: 1500 nM
- koff [7]: 0.175 s⁻¹
- kon [7]: 116000 M⁻¹ s⁻¹
- Kd [8]: 235 nM
- koff [8]: 0.0337 s⁻¹
- kon [8]: 144000 M⁻¹ s⁻¹
B1: anti-CD137 IgG1 with Fc variant G1mAA (antibody)
heavy: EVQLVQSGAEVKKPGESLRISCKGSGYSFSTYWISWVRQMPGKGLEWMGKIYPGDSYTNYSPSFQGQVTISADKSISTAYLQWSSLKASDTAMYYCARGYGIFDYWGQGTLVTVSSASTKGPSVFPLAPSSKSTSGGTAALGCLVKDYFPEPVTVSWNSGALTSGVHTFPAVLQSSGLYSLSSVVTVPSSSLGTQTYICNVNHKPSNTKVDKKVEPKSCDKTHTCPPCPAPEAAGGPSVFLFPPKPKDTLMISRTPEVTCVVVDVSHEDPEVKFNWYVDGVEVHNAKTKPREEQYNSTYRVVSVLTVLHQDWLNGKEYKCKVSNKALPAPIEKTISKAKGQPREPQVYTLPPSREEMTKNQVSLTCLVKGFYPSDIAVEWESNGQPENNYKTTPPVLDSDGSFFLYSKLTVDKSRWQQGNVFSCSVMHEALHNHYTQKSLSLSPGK
light: SYELTQPPSVSVSPGQTASITCSGDNIGDQYAHWYQQKPGQSPVLVIYQDKNRPSGIPERFSGSNSGNTATLTISGTQAMDEADYYCATYTGFGSLAVFGGGTKLTVLGQPKAAPSVTLFPPSSEELQANKATLVCLISDFYPGAVTVAWKADSSPVKAGVETTTPSKQSNNKYAASSYLSLTPEQWKSHRSYSCQVTHEGSTVEKTVAPTECS
notes: copies: 2 + 2

- Kd [9]: 7.61 nM
- koff [9]: 0.0133 s⁻¹
- kon [9]: 1.75e+06 M⁻¹ s⁻¹
- Kd [10]: 216 nM
- koff [10]: 0.297 s⁻¹
- kon [10]: 1.37e+06 M⁻¹ s⁻¹
- Kd [11]: 977 nM
- koff [11]: 0.234 s⁻¹
- kon [11]: 240000 M⁻¹ s⁻¹
- Kd [12]: 217 nM
- koff [12]: 0.309 s⁻¹
- kon [12]: 1.42e+06 M⁻¹ s⁻¹
- Kd [13]: 2220 nM
- koff [13]: 0.118 s⁻¹
- kon [13]: 53600 M⁻¹ s⁻¹
- Kd [14]: 284 nM
- koff [14]: 0.303 s⁻¹
- kon [14]: 1.06e+06 M⁻¹ s⁻¹
- Kd [15]: 528 nM
- koff [15]: 0.193 s⁻¹
- kon [15]: 365000 M⁻¹ s⁻¹
- binding result [1]: no binding (tested: 10 ug/ml)
B2: anti-CD137 IgG4 with Fc variant G4m30 (antibody)
heavy: EVQLVQSGAEVKKPGESLRISCKGSGYSFSTYWISWVRQMPGKGLEWMGKIYPGDSYTNYSPSFQGQVTISADKSISTAYLQWSSLKASDTAMYYCARGYGIFDYWGQGTLVTVSSASTKGPSVFPLAPCSRSTSESTAALGCLVKDYFPEPVTVSWNSGALTSGVHTFPAVLQSSGLYSLSSVVTVPSSSLGTKTYTCNVDHKPSNTKVDKRVESKYGPPCPPCPAPEFLPSVFLFPPKPKDTLMISRTPEVTCVVVDVSQEDPEVQFNWYVDGVEVHNAKTKPREEQFNSTYRVVSVLTVLHQDWLNGKEYKCKVSNKGLPSSIEKTISKAKGQPREPQVYTLPPSQEEMTKNQVSLTCLVKGFYPSDIAVEWESNGQPENNYKTTPPVLDSDGSFFLYSRLTVDKSRWQEGNVFSCSVMHEALHNHYTQKSLSLSLGK
light: B1 light
notes: also called G430; copies: 2 + 2
